Experiments:
[1] = target: chimeric (mouse and human) 4-1BB (c4-1BB) on transfected CHO cells (chimeric (mouse and human)); assay: flow cytometry on CHO-c4-1BB cells, negative control panel, detection with anti-mouse-IgG-Fc-FITC (1:100)
[2] = target: mouse 4-1BB (m4-1BB) on transfected CHO cells (mouse) (UniProt P20334); assay: flow cytometry on CHO-m4-1BB cells, negative control panel, detection with anti-mouse-IgG-Fc-FITC (1:100)
[3] = target: monkey (Rhesus macaque) 4-1BB (r4-1BB) on transfected CHO cells (monkey (Rhesus macaque)); assay: flow cytometry on CHO-r4-1BB (T) cells, negative control panel, detection with anti-mouse-IgG-Fc-PE (1:500)
[4] = target: human 4-1BB (h4-1BB) on transiently transfected CHO cells (human) (UniProt Q07011); assay: flow cytometry on CHO cells transiently transfected with human 4-1BB, detection with anti-mouse-IgG-Fc-FITC (1:100), SSC-H against FITC; negative control panel
[5] = target: Histidine-tagged human 4-1BB protein (h4-1BB-His) (human) (UniProt Q07011); assay: SPR (Biacore T200), antibody on Protein A chip, h4-1BB-His injected

Sequence of urelumab (antibody) (VH): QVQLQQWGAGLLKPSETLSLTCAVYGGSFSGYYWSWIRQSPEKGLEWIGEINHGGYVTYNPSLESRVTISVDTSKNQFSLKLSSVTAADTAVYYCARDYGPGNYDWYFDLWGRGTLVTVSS
Sequence of urelumab (antibody) (VL): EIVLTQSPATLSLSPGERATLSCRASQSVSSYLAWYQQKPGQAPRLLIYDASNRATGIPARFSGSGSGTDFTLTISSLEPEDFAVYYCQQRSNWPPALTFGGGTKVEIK

percent of cells in the FITC-positive gate [1] [%]	percent of cells in the FITC-positive gate [2] [%]	percent of cells in the PE-positive gate [3] [%]	percent of cells in the FITC-positive gate [4] [%]	Kd [5] [nM]	koff [5] [s⁻¹]	kon [5] [M⁻¹ s⁻¹]	Substance
1.07	0.983	0.429	0.598				NC
				44.3	0.00302	68100	urelumab (antibody)
